Assay results taken from patent US20210322559A1.
Non-standard residues stand in square brackets, D forms with d. No end group written: not given here. Hyp = O=C(O)[C@@H]1C[C@@H](O)CN1

Tests used:
[1] = target: porcine gelatin (denatured collagen) (porcine); assay: fluorescence in crosslinked gelatin film after 6 washes at 4 °C (FIG. 6A)
[2] = target: porcine gelatin (denatured collagen) (porcine); assay: fluorescence; CHP 15 µM premixed into 10% porcine gelatin, 5 washes at 4 °C (FIG. 6B)

Binder	percent removal after washes at 4 °C [1] [%]	percent removal after washes at 4 °C [2] [%]
PP[Hyp]GGP[Hyp][Hyp]G[Hyp]G[Hyp]PGPGGGKGGGPGP[Hyp]G[Hyp]G[Hyp][Hyp]PGG[Hyp]PP (also: branched dimer: two arms grown from both amines of Lys19, residues 20-37 are the second arm written reversed, G3K with carboxyfluorescein on the C-terminal Lys attached at branch point Lys19) [5r, (PPOGGPOOGOGOPGP-G3)2KG3K^CF]	> 95	> 95
9r, (PGOGPGPOPOGOGPOPGOOPGGOOPPG-G3)2KG3K^CF (also: branched dimer: two arms grown from both amines of Lys31, residues 32-61 are the second arm written reversed, G3K with carboxyfluorescein on the C-terminal Lys attached at branch point Lys31) PG[Hyp]GPGP[Hyp]P[Hyp]G[Hyp]GP[Hyp]PG[Hyp][Hyp]PGG[Hyp][Hyp]PPGGGGKGGGGPP[Hyp][Hyp]GGP[Hyp][Hyp]GP[Hyp]PG[Hyp]G[Hyp]P[Hyp]PGPG[Hyp]GP	> 95	> 95
PG[Hyp]PP[Hyp]GGP[Hyp][Hyp]G[Hyp]G[Hyp]PGPGGGKGGGPGP[Hyp]G[Hyp]G[Hyp][Hyp]PGG[Hyp]PP[Hyp]GP (also: branched dimer: two arms grown from both amines of Lys22, residues 23-43 are the second arm written reversed, G3K with carboxyfluorescein on the C-terminal Lys attached at branch point Lys22) [6r, (PGOPPOGGPOOGOGOPGP-G3)2KG3K^CF]	> 95	> 95
